What was measured:
[1] = biological target: Bacillus anthracis protective antigen PA83 (Bacillus anthracis, UniProt P13423 30-764); test: SPR (BIACORE), PA83 on CM5 chip, 4 concentrations of monomeric scFv
EGFP-PA32 fusion protein = EGFP-PA32 fusion protein (Bacillus anthracis); test: SPR (BIAcore), […], single concentration
recombinant PA32 protein = recombinant PA32 protein (Bacillus anthracis); test: SPR, PA32 coupled to CM5 chip, single scFv concentration

| Binder | Kd [1] [nM] | binding result (EGFP-PA32 fusion protein) | binding result (recombinant PA32 protein) |
| --- | --- | --- | --- |
| scFv#24 (scFv) scFv: QVQLVESGGGLVQPGGSLRLSCSASGFTFSSYAMHWVRQAPGKGLEYVSAISSNGGSTYYADSVKGRFTISRDNSKNTLYLQMSSLRAEDTAVYYCVKDLHVGRLQLGVFDYWGQGTLVTVSSGGGGSGGGGSGGGGSSELTQDPAVSVAVGQTVKITCQGDSLRSYYATWYQQKPGQAPVLVIYGKNSRPSGIPDRFSGSSSGTTASFTITGAQAEDEADYYCNSRDSTNNQLFGGGTKLTVLGAAAEQKLISEEDLNGAAHHHHH | 430 |  |  |
| scFv#4 (scFv) scFv: QVQLVESGGGLVQPGGSLRLSCSASGFTFSSYAMHWVRQAPGKGLEYVSAISSNGGSTYYADSVKGRFTISRDNSKNTLYLQMSSLRAEDTAVYYCVKDLHVGRLQLGVFDYWGQGTLVTVSSGGGGSGGGGSGGGGSSELTQDPAVSVALGQTVRITCQGDSLRSYYASWYQQKPGQAPVLVIYGKNNRPSGIPDRFSGSSSGNTASLTITGAQAEDEADYYCNSRDSSSTHRGVFGGGTKLTVLGAAAEQKLISEEDLNGAAHHHHHH | 310 |  |  |
| scFv#12 (scFv) scFv: QVQLVESGGGVVQPGRSLRLSCAASGFTFNNHAMEWVRQAPGKGLEWVSGINWDGGSTGYADSVKGRFAVSRDNAKNSLYLQINSLRDEDTAVYYCARANWGRIDYWGQGTLVTVSSGGGGSGGGGSGGGGSSELTQDPAVSVALGQTVRITCQGDSLRRYYASWYQQKPGQAPVLVIYGKNNRPSGIPDRFSGSSSGNTASLTITGAQAEDEADYYCHSRDSSGTHLRVFGGGTKLTVLGAAAEQKLISEEDLNGAAHHHHH |  | no binding | no binding |
| scFv#1 (scFv) scFv: QVNLRESGGGLVQPGGSLRLSCAASGFTFSSYAMSWVRQAPGKGLEWVSAISSNGGSTYYADSVKGRFTISRDNSKNTLYLQMSSLRAEDTALYYCARERGAAAASDYWGPGTLVTVSSGGGGSSGGGSGGGGSQSVLTQPPSASGTPGQRVTISCSGSSSNIGSNSVNWYQQLPGTAPKLLIYSNSNRPSGVPDRFSGSKSGTSASLAISGLRSEDEADYYCAAWDDSLSGRVFGGGTKLTVLGAAAEQKLISEEDLNGAAHHHHHH | 190 |  |  |

From patent publication US20040014707A1 (published 2004)
